Measurements taken from patent EP4624492A1 (Shanghai Hongcheng Biopharmaceutical Co., Ltd., dated 2025).
Read-outs that look alike come from different tables or passages of the source.

B1: 563E10E12_hIgG1 (antibody)
heavy: not shown
light: DVVMTQAAFSNPVTLGTSTSISCRSSKSLLHSNGITYLFWYLQKPGQSPQLLIYQMSNLASGVPDRFSGSGSGTDFTLRISRVEAEDVGVYYCAQSLELPLTFGGGTKLEIKRTVAAPSVFIFPPSDEQLKSGTASVVCLLNNFYPREAKVQWKVDNALQSGNSQESVTEQDSKDSTYSLSSTLTLSKADYEKHKVYACEVTHQGLSSPVTKSFNRGEC
notes: also called hIgG1-subclass chimeric antibody 563E10E12
B2: 563E10E12_hzH1L0_hIgG1 (antibody)
heavy: not shown
light: DIVMTQSPLSLPVTPGEPASISCRSSKSLLHSNGITYLFWYLQKPGQSPQLLIYQMSNLASGVPDRFSGSGSGTDFTLKISRVEAEDVGVYYCAQSLELPLTFGGGTKVEIKRTVAAPSVFIFPPSDEQLKSGTASVVCLLNNFYPREAKVQWKVDNALQSGNSQESVTEQDSKDSTYSLSSTLTLSKADYEKHKVYACEVTHQGLSSPVTKSFNRGEC
notes: Humanized, hIgG1/K
B3: 563E10E12_hzH1L0_AF (antibody, human IgG1, kappa)
heavy: not shown
light: DIVMTQSPLSLPVTPGEPASISCRSSKSLLHSNGITYLFWYLQKPGQSPQLLIYQMSNLASGVPDRFSGSGSGTDFTLKISRVEAEDVGVYYCAQSLELPLTFGGGTKVEIKRTVAAPSVFIFPPSDEQLKSGTASVVCLLNNFYPREAKVQWKVDNALQSGNSQESVTEQDSKDSTYSLSSTLTLSKADYEKHKVYACEVTHQGLSSPVTKSFNRGEC
modifications: afucosylated (expressed in ExpiCHO cells with 2F-peracetyl-fucose)
B4: 563E10E12_hzH1L1_hIgG1 (antibody)
heavy: not shown
light: DVVMTQSPLSLPVTPGEPASISCRSSKSLLHSNGITYLFWYLQKPGQSPQLLIYQMSNLASGVPDRFSGSGSGTDFTLKISRVEAEDVGVYYCAQSLELPLTFGGGTKVEIKRTVAAPSVFIFPPSDEQLKSGTASVVCLLNNFYPREAKVQWKVDNALQSGNSQESVTEQDSKDSTYSLSSTLTLSKADYEKHKVYACEVTHQGLSSPVTKSFNRGEC
notes: Humanized, hIgG1/K
B5: 559E1B10_hzH1L1_hIgG1 (antibody)
heavy: not shown
light: EIVLTQSPATLSLSPGERATLSCRASQSISDYLHWYQQKPGQAPRLLLKYVSQSISGIPARFSGSGSGTDFTLTISSLEPEDFAVYYCQNGHSFPLTFGGGTKVEIKRTVAAPSVFIFPPSDEQLKSGTASVVCLLNNFYPREAKVQWKVDNALQSGNSQESVTEQDSKDSTYSLSSTLTLSKADYEKHKVYACEVTHQGLSSPVTKSFNRGEC
notes: Humanized, hIgG1/K

Columns and labels:
[1] = molecular target: T1, human CCR8 (human, UniProt P51685 1-355); assay: cell-based or functional assay
[2] = molecular target: T1, human CCR8; assay: cell-based or functional assay; remark: listed apart in the source
[3] = molecular target: T1, human CCR8; assay: flow cytometry on 293F-hCCR8 cells
[4] = molecular target: T1, human CCR8; assay: flow cytometry on 293F-hCCR8 cells; remark: listed apart in the source
[5] = molecular target: T2, cynomolgus CCR8 (cynomolgus monkey); assay: flow cytometry on 293T-cynoCCR8 cells
T2 construct: whole, on cells; the constructs of the cell lines are not tied to it word for word; also called cynoCCR8

[6] = molecular target: T1, human CCR8; assay: flow cytometry, competition with 10 nM AF647-human CCL1 on 293F-hCCR8 cells
[7] = molecular target: T1, human CCR8; assay: as above; remark: listed apart in the source
[8] = molecular target: T1, human CCR8; assay: cell-based or functional assay; remark: listed apart in the source
[9] = molecular target: T1, human CCR8; assay: cell-based or functional assay; remark: listed apart in the source
[10] = molecular target: T1, human CCR8; assay: cell-based or functional assay; remark: listed apart in the source
[11] = molecular target: T1, human CCR8; assay: cell-based or functional assay; remark: listed apart in the source
[12] = molecular target: T1, human CCR8; assay: flow cytometry on CHOK1-hCCR8 cells
[13] = molecular target: T1, human CCR8; assay: flow cytometry on HuT78 cells (endogenous CCR8)
[14] = molecular target: T1, human CCR8; assay: cell-based or functional assay; remark: listed apart in the source

T1 sequence (P51685 whole entry): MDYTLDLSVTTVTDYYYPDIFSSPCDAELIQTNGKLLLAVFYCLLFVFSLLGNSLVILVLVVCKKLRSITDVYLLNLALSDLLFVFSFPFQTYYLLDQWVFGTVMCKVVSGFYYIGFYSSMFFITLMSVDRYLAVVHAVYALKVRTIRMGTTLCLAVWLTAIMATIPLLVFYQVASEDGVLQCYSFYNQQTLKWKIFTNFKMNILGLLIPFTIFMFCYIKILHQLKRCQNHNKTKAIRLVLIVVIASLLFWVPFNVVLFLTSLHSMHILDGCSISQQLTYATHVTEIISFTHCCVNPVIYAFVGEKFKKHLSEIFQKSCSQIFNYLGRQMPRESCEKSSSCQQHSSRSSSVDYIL

Binder	IC50 of blockade of CCL1-induced β-arrestin recruitment [1] [µg/mL]	EC50 of activation of Jurkat-human FcγRIIIa(158V)-NFAT with 293F-hCCR8 target cells [2] [µg/mL]	EC50 [3] [µg/mL]	EC50 [4] [µg/mL]	EC50 [5] [µg/mL]	IC50 [6] [µg/mL]	IC50 [7] [µg/mL]	EC50 of activation of Jurkat-human FcγRIIIa(158V)-NFAT with CHOK1-hCCR8 target cells [8] [µg/mL]	EC50 of activation of Jurkat-human FcγRIIIa(158V)-NFAT with 293F-hCCR8 target cells [9] [µg/mL]	EC50 of activation of Jurkat-human FcγRIIIa(158V)-NFAT with HuT78 target cells [10] [µg/mL]	EC50 of ADCC effect (lysis%) by human PBMCs on CHOK1-hCCR8 cells [11] [µg/mL]	EC50 [12] [µg/mL]	EC50 [13] [µg/mL]	EC50 of activation of Jurkat-human FcγRIIIa(158V)-NFAT with 293F-hCCR8 target cells [14] [µg/mL]
B1	1.72	0.0216	0.0273	0.073	0.0473	0.0295	0.0513	–	–	–	–	–	–	–
B2	1.46	0.0279	–	0.103	0.0227	–	0.0852	0.0299	0.0135	0.0409	0.00471	0.0376	0.054	–
B3	–	–	–	–	–	–	–	–	0.0009	0.011	0.00031	–	–	–
B4	1.61	0.0283	–	0.124	0.0264	–	0.0835	–	0.0089	–	–	0.0423	0.0545	–
B5	28.1	–	–	0.114	0.0876	–	0.15	0.0265	0.0133	–	–	0.036	15.2	0.0421
